The record followed here is PMC4354731.

Substrate in series [1]: COC1=C(OC)C(=O)C(C)=CC1=O
Nature of the series: succinate:Q0 oxidoreductase steady-state kinetics in membranes. As to conditions: [3Fe-4S], [4Fe-4S], [2Fe-2S] clusters; FAD; heme b. The format is biochemical, Escherichia coli.

Substrate in series [2]: CC(C)=CCC1=C(O)C(=O)c2ccccc2C1=O
As to the kind of experiment: lapachol:fumarate oxidoreductase steady-state kinetics in membranes. As to conditions: [3Fe-4S], [4Fe-4S], [2Fe-2S] clusters; FAD; heme b. The format is biochemical, Escherichia coli.

B1: succinate dehydrogenase (SdhCDAB), SdhB subunit (Escherichia coli K-12) (protein)
chain 1: MRLEFSIYRYNPDVDDAPRMQDYTLEADEGRDMMLLDALIQLKEKDPSLSFRRSCREGVCGSDGLNMNGKNGLACITPISALNQPGKKIVIRPLPGLPVIRDLVVDMGQFYAQYEKIKPYLLNNGQNPPAREHLQMPEQREKLDGLYECILCACCSTSCPSFWWNPDKFIGPAGLLAAYRFLIDSRDTETDSRLDGLSDAFSVFRCHSIMNCVSVCPKGLNPTRAIGHIKSMLLQRNA
chain 2: MIRNVKKQRPVNLDLQTIRFPITAIASILHRVSGVITFVAVGILLWLLGTSLSSPEGFEQASAIMGSFFVKFIMWGILTALAYHVVVGIRHMMMDFGYLEETFEAGKRSAKISFVITVVLSLLAGVLVW
chain 3: MVSNASALGRNGVHDFILVRATAIVLTLYIIYMVGFFATSGELTYEVWIGFFASAFTKVFTLLALFSILIHAWIGMWQVLTDYVKPLALRLMLQLVIVVALVVYVIYGFVVVWGV
Consider B1, for which, in series [1], the Michaelis constant (Km) turned out to be 150 µM and the kcat worked out at 33.9 s⁻¹. For the same protein, in series [2], the Michaelis-Menten constant (Km) worked out at 100 µM and the catalytic constant (kcat) was 11.9 s⁻¹.
